Consider 32 molecules from article PMC10786891, “Massively parallel profiling of RNA-targeting CRISPR-Cas13d”.

Numbering of substitutions follows the chain as printed. Names may count otherwise.

To fix the notation:
T1: EsCas13d, nuclease-dead (Eubacterium siraeum, UniProt B0MS50, R295A;H300A;R849A;H854A)
T1 sequence: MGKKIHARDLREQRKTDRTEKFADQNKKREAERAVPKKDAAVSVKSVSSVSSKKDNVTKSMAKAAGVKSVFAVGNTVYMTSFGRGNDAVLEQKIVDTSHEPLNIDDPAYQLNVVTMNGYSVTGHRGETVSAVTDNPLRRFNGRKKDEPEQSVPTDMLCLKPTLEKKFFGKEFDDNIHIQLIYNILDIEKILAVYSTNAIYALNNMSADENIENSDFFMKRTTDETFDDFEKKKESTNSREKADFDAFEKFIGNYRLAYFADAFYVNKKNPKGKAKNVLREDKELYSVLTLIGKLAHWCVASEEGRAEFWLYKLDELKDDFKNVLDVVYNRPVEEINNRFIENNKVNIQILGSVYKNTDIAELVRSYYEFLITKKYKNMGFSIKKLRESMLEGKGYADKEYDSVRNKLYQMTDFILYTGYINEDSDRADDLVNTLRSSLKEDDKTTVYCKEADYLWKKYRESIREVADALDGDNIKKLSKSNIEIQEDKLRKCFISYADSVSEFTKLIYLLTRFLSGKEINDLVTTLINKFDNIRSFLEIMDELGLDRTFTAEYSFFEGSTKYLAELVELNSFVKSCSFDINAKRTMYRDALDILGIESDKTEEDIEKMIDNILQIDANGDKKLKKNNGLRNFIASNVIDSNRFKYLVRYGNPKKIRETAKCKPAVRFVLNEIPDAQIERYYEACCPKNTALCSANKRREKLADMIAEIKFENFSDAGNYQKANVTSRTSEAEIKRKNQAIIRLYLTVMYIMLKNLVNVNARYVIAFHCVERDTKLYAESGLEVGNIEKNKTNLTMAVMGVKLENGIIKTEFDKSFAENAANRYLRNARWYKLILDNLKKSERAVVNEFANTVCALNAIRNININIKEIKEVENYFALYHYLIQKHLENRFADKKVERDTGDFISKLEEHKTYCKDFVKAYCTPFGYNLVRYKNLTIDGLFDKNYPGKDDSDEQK

B1: target 1 insA 3' of 8,insA 3' of 5 (mixed)
RNA 1: CACCCGUGCAAAAAUGCAGGGGUCUAAAACUGAGCGGAUAACCUCUCUAUGG
RNA 2: GGGAAUGGAUCCACAUCUACGAAUUCGUACCAUAGAGAGGUUAUACCGACUCACCGAGAUCGGAAGAGCACACGU
B2: target 1 C2U,G13C (mixed)
RNA 1: B1 RNA 1
RNA 2: GGGAAUGGAUCCACAUCUACGAAUUCGUACCAUAGAGACGUUAUCCGCUUACCGAGAUCGGAAGAGCACACGU
B3: target 1 C2A,U10C (mixed)
RNA 1: B1 RNA 1
RNA 2: B2 RNA 2 with C39G, U42C, U50A
B4: target 1 C6A,A16C (mixed)
RNA 1: B1 RNA 1
RNA 2: B2 RNA 2 with A36C, C39G, C46A, U50C
B5: target 1 del14 (mixed)
RNA 1: B1 RNA 1
RNA 2: GGGAAUGGAUCCACAUCUACGAAUUCGUACCAUAGAGGGUUAUCCGCUCACCGAGAUCGGAAGAGCACACGU
B6: target 1 insU 3' of 6,insU 3' of 2 (mixed)
RNA 1: B1 RNA 1
RNA 2: B1 RNA 2 with A45C, C47U, A49C, C50U, U51C, C52U
B7: target 1 A18C,C21U (mixed)
RNA 1: B1 RNA 1
RNA 2: B2 RNA 2 with C31U, A34C, C39G, U50C
B8: target 1 U19G,C22A (mixed)
RNA 1: B1 RNA 1
RNA 2: B2 RNA 2 with C30A, U33G, C39G, U50C
B9: target 1 insU 3' of 14,insU 3' of 14 (mixed)
RNA 1: B1 RNA 1
RNA 2: B1 RNA 2 with G39U, G40U, U41G, U42G, A43U, C46U, G48C, A49G
B10: target 1 insU 3' of 4,insG 3' of 2 (mixed)
RNA 1: B1 RNA 1
RNA 2: B1 RNA 2 with A45C, C47G, G48C, A49U, C50U, U51C, C52G
B11: target 1 G5A,U10C (mixed)
RNA 1: B1 RNA 1
RNA 2: B2 RNA 2 with C39G, U42C, G47A, U50C
B12: target 1 insU 3' of 13,insG 3' of 9 (mixed)
RNA 1: B1 RNA 1
RNA 2: B1 RNA 2 with G40U, U41G, A43U, U44A, A45G, C46U, G48C, A49G
B13: target 1 del7,del15 (mixed)
RNA 1: B1 RNA 1
RNA 2: GGGAAUGGAUCCACAUCUACGAAUUCGUACCAUAGAAGGUUAUCGCUCACCGAGAUCGGAAGAGCACACGU
B14: target 1 insC 3' of 19,insU 3' of 7 (mixed)
RNA 1: B1 RNA 1
RNA 2: GGGAAUGGAUCCACAUCUACGAAUUCGUACCAUCAGAGAGGUUAUCUCGCUCACCGAGAUCGGAAGAGCACACGU
B15: target 1 C2U,C6G (mixed)
RNA 1: B1 RNA 1
RNA 2: B2 RNA 2 with C39G, C46G
B16: target 1 insU 3' of 6,insU 3' of 5 (mixed)
RNA 1: B1 RNA 1
RNA 2: B1 RNA 2 with A45C, C47U, A49U
B17: target 1 complement block 18-20 (mixed)
RNA 1: B1 RNA 1
RNA 2: B2 RNA 2 with A32U, U33A, A34U, C39G, U50C
B18: target 1 insA 3' of 17,insG 3' of 9 (mixed)
RNA 1: B1 RNA 1
RNA 2: B14 RNA 2 with C34A, A35G, G36A, U45G, C46U, U47C
B19: target 1 insC 3' of 17,insU 3' of 15 (mixed)
RNA 1: B1 RNA 1
RNA 2: GGGAAUGGAUCCACAUCUACGAAUUCGUACCAUAGCAGUAGGUUAUCCGCUCACCGAGAUCGGAAGAGCACACGU
B20: target 1 G12U,C21A (mixed)
RNA 1: B1 RNA 1
RNA 2: B2 RNA 2 with C31A, C39G, G40U, U50C
B21: target 1 C2G,A20C (mixed)
RNA 1: B1 RNA 1
RNA 2: B2 RNA 2 with A32C, C39G, U50G
B22: target 1 G5C,G12C (mixed)
RNA 1: B1 RNA 1
RNA 2: B2 RNA 2 with C39G, G40C, G47C, U50C
B23: target 1 insU 3' of 17,insU 3' of 4 (mixed)
RNA 1: B1 RNA 1
RNA 2: B14 RNA 2 with C34A, A35G, G36U, U47C, C48G, G49C, C50U
B24: target 1 insA 3' of 19,insG 3' of 7 (mixed)
RNA 1: B1 RNA 1
RNA 2: B14 RNA 2 with C34A, U47G
B25: target 1 C2U,G17A (mixed)
RNA 1: B1 RNA 1
RNA 2: B2 RNA 2 with G35A, C39G
B26: target 1 C2G,U10C (mixed)
RNA 1: B1 RNA 1
RNA 2: B2 RNA 2 with C39G, U42C, U50G
B27: target 1 insA 3' of 15,insG 3' of 8 (mixed)
RNA 1: B1 RNA 1
RNA 2: B14 RNA 2 with C34A, A35G, G36A, A37G, G38A, C46G, U47C
B28: target 1 insC 3' of 15,insG 3' of 10 (mixed)
RNA 1: B1 RNA 1
RNA 2: B19 RNA 2 with C36A, A37G, G38C, U39A, A40G, G42U, U44G
B29: target 1 C4A,U19C (mixed)
RNA 1: B1 RNA 1
RNA 2: B2 RNA 2 with U33C, C39G, C48A, U50C
B30: target 1 C4G,C21U (mixed)
RNA 1: B1 RNA 1
RNA 2: B2 RNA 2 with C31U, C39G, C48G, U50C
B31: target 1 U11A,G17C (mixed)
RNA 1: B1 RNA 1
RNA 2: B2 RNA 2 with G35C, C39G, U41A, U50C
B32: target 1 insA 3' of 17,insU 3' of 12 (mixed)
RNA 1: B1 RNA 1
RNA 2: B19 RNA 2 with C36A, U39A, A40G, G42U

Broadly, the Kd is the concentration at which binding is half-saturated.

This data set has as its target T1, EsCas13d, nuclease-dead. The experiment in a line: crRNA (strand 1, pre-loaded); Mg2+; 40 mM Tris-HCl pH 7.5, 150 mM NaCl, 6 mM MgCl2, 1 mM DTT, 0.1% Tween-20, 0.2 mg/ml BSA; 25 C; 10 min per concentration, then washed. Particulars: tags: His6-TwinStrep-SUMO cleaved; N-terminal SNAP kept (SNAP-Surface 488); label: 3' end held by stalled T7 RNA polymerase.
B1 returned a Kd of 18.8 ± 1.5 nM.

The molecule B2 gave a Kd of 44 ± 7 nM.

B3: the affinity, expressed as Kd, was 17.8 ± 0.7 nM. The same measure for B4: 35.4 ± 2.2 nM. The same measure for B5: 12.1 ± 0.9 nM. B6 had an equilibrium dissociation constant (Kd) of 17 ± 1.6 nM.

In turn, B7 yielded a dissociation constant Kd of 7.48 ± 0.31 nM. The same measure for B8: 54 ± 9 nM. Take B9: the affinity, expressed as Kd, was 21 ± 1.3 nM. For B10, the affinity, expressed as Kd, was 7.4 ± 0.5 nM. B11 gave a Kd of 47 ± 5 nM. B12 yielded a Kd of 24.8 ± 3.2 nM. The value for B13 was 17.3 ± 0.7 nM; that for B14 was 62 ± 7 nM.

In the case of B15, the dissociation constant Kd came to 7.9 ± 0.3 nM. The same measure for B16: 14.3 ± 0.6 nM. Turning to B17, the Kd came to 57 ± 7 nM. The value for B18 was 22.2 ± 2.5 nM; that for B19 was 19.1 ± 1 nM; that for B20 was 27.4 ± 2.3 nM. Consider B21, for which the affinity, expressed as Kd, was 21.8 ± 1.1 nM.

In turn, B22 had a dissociation constant Kd of 30.4 ± 1.8 nM.

As to B23, the Kd came out at 19.2 ± 2.1 nM. The value for B24 was 16.3 ± 1.4 nM; that for B25 was 34.4 ± 2.7 nM. As to B26, binding was put at a Kd of 5.45 ± 0.29 nM. B27 registered a Kd of 7.9 ± 0.4 nM.

B28 returned a Kd of 24.6 ± 1.8 nM. The same measure for B29: around 36 nM; for B30: 3.5 ± 0.5 nM. For B31, the Kd was around 70 nM. As to B32, binding was put at a Kd of 10.4 ± 0.6 nM.
